Laboratory results published in patent US20050090648A1 (Eli Lilly, published 2005).

Assays:
[1] = molecular target: T1, Mouse Aβ 1-40 (mouse, UniProt P12023 672-711); test: BIAcore, single concentration of peptide
T1 construct: domain: Aβ 1-40; Numbers count on the Aβ peptide
T1 peptide (looked up): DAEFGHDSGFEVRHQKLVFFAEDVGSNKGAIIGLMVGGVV

[2] = molecular target: T2, Human Aβ fragment 10-20 (human, UniProt P05067 681-691); test: BIAcore, single concentration of fragment
T2 construct: domain: Aβ fragment 10-20; Numbers count on the Aβ peptide; also called human amyloid beta 10-20
T2 peptide (looked up): YEVHHQKLVFF

[3] = molecular target: T3, Human Aβ fragment 16-25 (human, UniProt P05067 687-696); test: BIAcore, single concentration of fragment
T3 construct: domain: Aβ fragment 16-25; Numbers count on the Aβ peptide; also called human amyloid beta 16-25
T3 peptide (looked up): KLVFFAEDVG

[4] = molecular target: T4, β-amyloid peptide (1-42) (UniProt P05067 672-713); test: BIAcore 2000, antibody captured by anti-IgG on CM5 chip, Aβ flowed over
T4 construct: domain: β-amyloid peptide (1-42); Numbers 1-42 count on the Aβ peptide, not on the APP precursor entry; also called Aβ 1-42; Amyloid-beta 1-42

[5] = molecular target: T4, β-amyloid peptide (1-42); test: competitive ELISA on coated β-amyloid peptide (1-42); competitor against biotinylated Mu3D6; second set of three experiments
[6] = molecular target: T4, β-amyloid peptide (1-42); test: competitive ELISA on coated β-amyloid peptide (1-42); competitor against biotinylated Mu3D6 (0.2 µg/ml); first set of three experiments

T4 sequence (P05067 672-713 limits assumed): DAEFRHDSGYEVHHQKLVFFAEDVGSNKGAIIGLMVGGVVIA

B1: Humanized 3D6 antibody (antibody, human IgG1, kappa, V domains shown)
VH: EVQLVESGGGLVQPGGSLRLSCAGSGFTFSNYGMSWVRQAPGKGLEWVASIRSGGGRTYYSDNVKGRFTISRENAKNSLYLQMNSLRAEDTAVYYCVRYDHYSGSSDYWGQGTLVTVSS
VL: DVVMTQSPLSLPVTLGQPASISCKSSQSLLDSDGKTYLNWLQQRPGQSPRRLIYLVSKLDSGVPDRFSGSGSGTDFTLKISRVEAEDVGVYYCWQGTHFPRTFGGGTKVEIKR
notes: Expressed from pVk-Hu3D6 and pVg1-Hu3D6 in Sp2/0 (human kappa, gamma 1); also called Hu3D6
**Q.** Does B1 bind [1]?
**A.** Result: no binding

**Q.** Does B1 bind [2]?
**A.** Result: no binding

**Q.** Does B1 bind [3]?
**A.** Result: no binding

**Q.** What about the Kd [4] of the same binder?
**A.** Its Kd is 2.3 nM.

**Q.** What about the IC50 [5] of the same binder?
**A.** The IC50 was 3.97 µg/mL.

**Q.** What about the IC50 [6] of the same binder?
**A.** The IC50 was 3.3 µg/mL.
